Assay: label from the status in PepcDB records

| Sequence | protein production |
| --- | --- |
| MIRNSGIHHEKLSQLLQSGHSLWVLYLDIAKFHEVEFRQGYRACAQILDLVLTEMKHTLHNYMHLFHTILLDYQGGDDFLFYFAPNENTPWSIAKLIPEFVPTLESRINHRIQRLVNETITLHSGLVECKPQPGRSVDYLLYGALKEAFLLNKSEPDPLYFSHREEVNRLLEEPQTYLSSAFQPILDVVSGEFFGFEALTRLKPPSSFAGIADLFPFAEKIGQLYPVETICRRTAILNSSQILRPKELLFLNVEPQVLTDPEFSSGQTRRLLETQGLTPSDVVLEITERSAIANYGTFREALEHYRKQGYLIALDDVGAGYSSLQSIAELHPDFLKIDRCLIQGIHLDPIKWALFETFVTFSRRIGCRILAEGVETQEEMRTVVQLGADYVQGYFIAKPSFTRPELSDPVTQIVQSQQRLSFNSEKTVQHLLEPLPLVTPQTTVNAVQNYFEEHAKIWLIGVADKGELLGVVQRDNLYSALATPFGVSLYSQRPVTSLMNNKQLLIEDTTPIEVASSLAMARPDAHLYDGIVVVQQQKPIGMIRVASLIKAMSDTQLQIAQGASPLTGLPGNSAIEQEIKRRLNSGNAFGMIYADLNQFKAFNDTYGFQYGDSIIKLLGKILMQDSLKADDLAFVGHVGGDDFIILTTQNVTKTLGETILLSFQEQLSAMQGAQDLSLALAGLIIYPHTAWTPATLSERIAAVKREAKKAHCNYFLLRE | failed |
| MLARVLILLMFSLCAWPARAHALTIYTEEWPPITFQRNGIADGMAVEVVREIQGRIHDNSPIEVVPWARGYKDLLTTPGVMLFTVGRSEAREKQMTLLGPIAVSQTVLLARKGEAAKLLALGAGIYQRPVGAYRGSIFADAASAAGFVEVDLAPTPQLTAQKMLMGRYDMWVEGGFVVASVLKDIHQPANAVEVVRVLESLELYLAFSRGTSAEEVKRWQDGFAAIKKDGTFKRIYNKWLPRDAPPMEMKLLGVPPGTAR | failed |
| MSEHFLQQKYNSISENPIYLFWFLQFCFWSFVSLISLVSLTLWYVQIDVAHLNHTFLQSFVGVVFSLPLYWAFMRCWNTSIFIRVFVSITSVLLISFIWTVIRVELYIRLTGTDEIWTQFGGWYFSSIFIYFCWTGFFHGIRYYQLLQFEHEIMLKKEAEAKTEQLKRLSAQTVARDAKIKMLRYQLNPHFLCNTLNAINSLIECELPEKAQLMTVQLSKFLRYSLDNDPDTKIALEFELKALELYLEIEKTRFGERLQLDFQISEAAKAAFIPSLLLQPLIENSMKHVIAQNEEGGVISLSADVIDNMLVLELSDTGSAKRVDINKIKSKTGRGVGLRNIDERLKALYTDNYVYNLNVRPSGGLKTTIKLPLDSQGEPDIVNQAYNSMKVC | failed |
| MDKNNLEDLTGKKILRNGFGGLRLEYGTIFLDVGLFTYIVLILSIFFFLVERWFLGALTFVLHVPLLLLGIWCGER | failed |
| MNAQLQYQIEQFFYRKSELCDAQDWDAYLQLFAVDSEFHLPQWDSEHVYTRDPKREMSLIYYANRSGLEDRVFRLRTGKAASTIPMPRTLHMVSNLRIAEGDNGLLRVRLNWHTLFYRLATSEEFYGHATYDLKPQGDSWLIQRKHVLLLNDTINSVLDFYHL | failed |
| MNDFLFYLDIFGVIVFALSGALMAGRYQLDPFGVVVLASVTAVGGGTIRDVILQTPVFWVEKPYYLYVILATAILTIVLIRQPKRIPKRFLLIADALGLALFAVLGTQKALYLGAPIPVAVVLGTITGIAGGMIRDVLCNVIPMILREEIYALAAMLGGSLFIILHGLNWNDTNAMIVSISAALALRLAAIYWHVSLPAFHIVEKPKKEKGTTKIIEKK | failed |
| MTVDAATSAEVSQRVLAYLVEQLGVDVSFLRHNDRDRRATRLVAEWPPRLNIPDPDPLRLIYFADADPVFALCEHAKEPLVFRPEPATEDYQRLIEEARGVPVTSAAAVPLVSGEITTGLLGFIKFGDRKWHEAELNALMTIATLFAQVQARVAAEARLRYLADHDDLEHHHHHH | not failed |
| MRLNHNSYEIFDFMRSRSAIGVLSKIIITIPPINLRMIIGVMGPEGSYSERAAKLWARKNGLRGAEFHYFADIEDAFLAAVGGKTDISVVPVENSIEGSVGVTLDLLLENEAVIIGEIVVKIEHCLLSKGEPEKIRVILSHPQGLAQCRHFLKTHFPEAELRSTGSTSHAARLAGEFEEMAAIASPEAAERYGLKILLSNVQDRKENHTRFIVVRGGEKVLSGKIKGKADSGEKLNTVFGRNAEHKLCSETETGTENSSSYAFKTSLIVYLEKDRPGALYEPLGFFAKRGINLTKIESRPSKKELGDYYFYIDLEGNISDVLIKDALEDIKSKASKKSRSSTLKVLGSYPAFKK | failed |
| MASAMLATLELDYFRAVSLYRRRSYERCAELCNALLQAGHDGHVQLFTTKEEEEEEQHQQQQAEHSRFGSNLQRIGPRPRGAAGGGAGAVDSGPSIMMPTWLMEGVWQLKMRALTQRVYVDDLDEDDGGNEATEEVEFERIATAARPGSSIKTAFQPRPLTSQRAQQARSRGAGVAHSSDGRLNSSRPGSAAVARPGTSLSRPGSSLGSRCGTASRIRATSAAAFNVGDATSKLYQASRLNPTIYAERETLVKALFQFLYYHEADVQKAHSLCQAVLEVERQKPSGSTGCTLSWWWQQQMGRCLLALHYPRRAEPFLQQSLTSFPHPDTYLLLSRVYQRIKQPERALLVIGEVVDSRPFDVTYRLEQARIHQAMEQQEDALQLYRLAAKLHPINVESLASIAVGYFYDNNPEMALMYYRRILSLGAQSPELYCNIALCCLYGGQIDLVLPCFQRALATATQPGQKSDIWYNLSFVAVTSGDFNLAKRCLQLCLTSDAQNGAALNNLAVLAAQSGDILGAKSYLNAAKDVMPDAAEVTTNLQFMDVHYKL | failed |
| VRTLWISDVHLGTRDCQAEHLSAFLKRYQADKVYLVGDIIDGWKLRGGMYWPQAHTNVIRRLLTMSKRGTEVIYVTGNHDEFLRRYSKLILGNIQLVDEAEHVTADGRRFLVIHGDQFDVITRYHRWLAFLGDSAYEFTLTLNRWLNHWRAKYGYGYWSLSAYLKHKVKSAVNFISDFEEAIAHECVKRGLDGVVCGHIHHAEIRQVGGVEYLNCGDWVESCTALIEHLDGNIELFRLA | failed |
| MKKLLLTVIQIALLFIFARLINWVTALLHINIPGSIIGIVILFTLLHFNIIKLEWIELGAAWLLGELLLFFIPSAVGVIEYGDIMSKFGVSILLVVIISTFVVMVSTGTLTQLIAKRKEKKHTCSSEL | failed |
| EVVVAVASAPVDVAQVGRRRGRLAVIGLGPGAAELMVPAVKAELAQAEDVLGYETYVRMAGPFRGDQVLHCTDNREEMQRARHAFELAAQGRSVAVVSSGDPGVFAMAAAVLEALHESSDPTWHRVDLQILPGV | failed |
| MADLPSISLITATYNAAQHLPGLIESVRQQSDRAFEWIVIDGASEDGTLDLIRGAQDVITDYVSEPDFGIFHALNKGIQRATGDYYLVVGADDRLDPLAIANYKQAAASSQADLISAYIYSEKKAIIKPTGGAIWHHGVQAFITTQSVGTLIKRNLHEHYGYYSHYYPTAADALFILKVQQGGGKITTAEFIAGQYNTKGFSYRYKANLLCELFLIQKEFFPKSIQLLLLIYRLIKNYRYLLEHHHHHH | failed |
| MVRVFNHWFSPRKAFYFFAEETVLVVALLAGASLGPVAAQATGAAAPIAPAVLRAGLASLFFAGALYLGDLYDLHAAVRDRADGRRLLRALGVATIALAIADLSLDLVLPGWMLHRSVVLAAAGGALGVIGARALMPAVVGAPTRVLFLGAGPRARDLARAVEREADGLWAVAGFVVPEGSRAPAVVPPEALRQGPVLDVVRQARAQVVVVAMEDRREGLPVDALLALRTRGLRVVDDVGFAEATLQRIPLALVRPSALIFDEGFRVSRLTRTVKRALDLGVSAVGLLLGAPVMAAVAAAIWLSDGRPLLYSQERTGRGGRPYRIWKFRTMRRDAEKLGAAWATDDDPRVLPVGRFLRRARLDELPQLWNVLGGHMSLVGPRPERAVFLSELKARWPLFALRELVKPGLTGWAQLRYGYGSTMEEQAKKLEYDLYYIKNTTLFLDLVCLLATAKVVLLGRGAR | failed |
| MRKLDRVDMQLVKILSENSRLTYRELADILNTTRQRIARRIDKLKKLGIIRKFTIIPDIDKLGYMYAIVLIKSKVPSDADKVISEISDIEYVKSVEKGVGRYNIIVRLLLPKDIKDAENLISEFLQRIKNAENVEVILISEVRKFEII | not failed |
| MKILLIGASGTLGSAVKERLEKKAEVITAGRHSGDVTVDITNIDSIKKMYEQVGKVDAIVSATGSATFSPLTELTPEKNAVTISSKLGGQINLVLLGIDSLNDKGSFTLTTGIMMEDPIVQGASAAMANGAVTAFAKSAAIEMPRGIRINTVSPNVLEESWDKLEPFFEGFLPVPAAKVARAFEKSVFGAQTGESYQVY | not failed |
| MTLTQLEIFALVAEMQGFTAAAARLGISQSGVSHAVRELERELGVELLQRRQGRVELTDIGRQLLPRASGMLGLAEAMRQEAADARGLRRGTLRIGSFGPTSSMRLLPALLARYRQQYPGIEVHIDEGPDEQVLQWLLERRVDIAFAVLPDPRFVCCPLVEDQMVAVLPAGHRLADRPRVTLAELCGEPFALSGAGSAELVMRLFQAARLQPNIRYRCGQLLSTLDTVARGDAVAIVAELSLPSRPHAEGYVGKPLQPAVRRQVGLALLDGDQASPAARAFLQIADRLRIEGGLAGLNARENGAA | not failed |
| MLRGCGKLKKNLPCSVHTETPIVLKTTARFLLGLSLVLLSSSVATAQVVLPRTLELNAKEMEQNGFVVAQEALQLAQFQQFEDALVRAKLAVQLAPRAHEIWALLGGLYLTVNQPKDAVPALEQSLKLNDKNPGAYFNLGSAHFRLGRYDAAARAIEQGLALKPNATEEWFNLGNAYLKLGQKDRAIEQYRRSLRLDRRFWPAYTNIGLVLYEQGHIRQAVKNWEQAADIDPKASEPKLALATALLQLGNEARALQLAEEALRLDSRYGTVEFQRENLWGDRLVADTQILLAKPPLRALMSQLQPEQSALPQP | failed |
| MKFALQINEGPYQHQASDSAYQFAKAALEKGHEIFRVFFYHDGVNNSTRLTTPPQDDRHIVNRWAELAEQYELDMVVCVAAAQRRGIVDEGEASRNGKDATNIHPKFRISGLGQLVEAAIQADRLVVFGD | not failed |
| MTRTISRILVTGTSGQLGALVIEELLKKIHASHLIAAARDPKALMAFSRRGVETRLLDYTDQISIEAAFQGVERLLLVSSNVIDQRLVQHRNVIEAAARAGVGLFAYTSLLHADNSSLLLAKDHVQTEALLKGSGIPYVLLRNGWYTENYTDSIGAALVHGAVLGSAGTGRIAAATRADYAAAAAAILASDVDQAGRTYELAGDEAFTMPEYAAEIAQQSGKPVIYRDLPEAEYAAILMQVGLPESFAAILAQSDIGASQGALFDDSHQLSTLIGRPTTPLREVVAKALSAVR | failed |
| MPQGKWFRFGYGIVLVLLIIYLGSLVDWIFRPIVVFVQTLFAPVIIAGILYYLFRPIVGLLSKKMNRGLSILILFLMIIGAFTAFSLIVGPELQRQFQSLYNNLPTLINQVRDTFIALQSNELFNRFQESETFQPEEMISRFVNSLNDIIGTIGANITGFIGALANFFIILVLVPFILFYLLKEGEKLPVQLLKLFNKKQQHEGRLILADMDKMLSSYIQGQIIVSFCVGILCYIAYLIIGLDYALILALVAMFTNVIPFVGPWIGTFPAVIVAFIDSPLTALIVVIVVVVIQQIESNLISPQVMGKKLAIHPITIIFILLVAGRFAGVVGMLLAVPTYAVGKVIVTHSYRLWKLRKQPVE | failed |

From a protein production outcome set (Wang et al. 2014)
